Literature values as cited in PMC2174977.

Molecular target: chemoreceptor (Tar) (Escherichia coli) (UniProt P07017)
UniProt P07017, sequence (P07017 whole entry): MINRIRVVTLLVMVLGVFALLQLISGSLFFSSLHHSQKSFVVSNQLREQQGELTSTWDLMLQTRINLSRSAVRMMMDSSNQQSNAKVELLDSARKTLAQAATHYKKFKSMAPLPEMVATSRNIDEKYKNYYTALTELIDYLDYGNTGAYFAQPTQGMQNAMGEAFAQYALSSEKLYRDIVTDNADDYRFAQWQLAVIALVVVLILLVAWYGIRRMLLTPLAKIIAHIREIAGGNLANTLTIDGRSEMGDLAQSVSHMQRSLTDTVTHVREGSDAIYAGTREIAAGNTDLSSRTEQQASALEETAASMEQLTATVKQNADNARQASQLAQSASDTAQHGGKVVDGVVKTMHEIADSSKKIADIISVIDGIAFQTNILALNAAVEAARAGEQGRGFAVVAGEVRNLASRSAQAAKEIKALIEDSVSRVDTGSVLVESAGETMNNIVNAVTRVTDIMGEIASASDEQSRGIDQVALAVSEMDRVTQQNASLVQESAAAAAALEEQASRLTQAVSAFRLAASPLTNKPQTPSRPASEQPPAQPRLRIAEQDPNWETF

Kd: 11 µM
Substance: CheR (from UniProt P07364)
